Results from paper PMC12620021 (Nucleic Acids Research, 2025).

Key:
[1] = molecular target: T1, RelE1 toxin of Mycobacterium tuberculosis (crystallization construct, expressed as His-SUMO–RelE1) (Mycobacterium tuberculosis, UniProt O50461 1-97); experiment: crystal structure; details: both partners purified
T1 sequence: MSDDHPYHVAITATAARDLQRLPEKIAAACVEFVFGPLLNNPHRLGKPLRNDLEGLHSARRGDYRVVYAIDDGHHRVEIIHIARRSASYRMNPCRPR

crystal structure = molecular target: the molecule itself; experiment: crystal structure

B1: RelB1 antitoxin of Mycobacterium tuberculosis (crystallization construct) (natural protein)
chain: MAVVPLGEVRNRLSEYVAEVELTHERITITRHGHPAAVLISADDLASIEETLEVLRTPGASEAIREGLADVAAGRFVSNDEIRNRYTAR
B1: binds [1]; binds (crystal structure).
